Measurements: publication PMC5214741

Legend:
[1] = molecular target: E. coli F-ATPase subunit c (cysteine-free F-ATPase) (E. coli) (UniProt P68699); assay: cryo-EM structure; purified cysteine-free E. coli F-ATPase in digitonin at 3.58 μM, no nucleotides added; three rotational states at 6.9, 7.8 and 8.5 Å; models built by docking crystal, NMR and homology models, side chains pruned to Cα
[2] = molecular target: E. coli F-ATPase subunit b (cysteine-free F-ATPase) (E. coli) (UniProt P0ABA0); assay: as above

stoichiometry N [1] | stoichiometry N [2] | Substance
10 | – | E. coli F-ATPase subunit c (cysteine-free F-ATPase) (from UniProt P68699 1-79) (natural protein)
– | 2 | E. coli F-ATPase subunit b (cysteine-free F-ATPase) (from UniProt P0ABA0 2-156) (natural protein)
